According to US11365219B2, “Cyclic peptides as protein targeting agents” (California Institute of Technology, priority 2013, dated 2022):
pEC50: −log10 of the molar value. Numbered stars: 1 amine (or outer) side, 2 acyl side, 3 side chain; on linkers, the order of the positions; unused ones are H or OH. Bridge positions count the residues as written; N and C are the ends. Square brackets hold non-standard residues; d marks the D form. Ends that are not written are not given here. Peptide text beside a SMILES is read from it. * marks the point of attachment. Biotin = O=C1N[C@H]2[C@H](CS[C@H]2CCCCC(=O)*)N1; X1 = O=C(CCCOCCOCCOCCOCCOCCN[*:1])[*:2]; Ethylenediamine = C(CN[*:2])N[*:1]; R8 = C=CCCCCCC[C@@](C)(N)C(=O)O; S5 = C=CCCC[C@](C)(N)C(=O)O; Pra = C#CC[C@H](N)C(=O)O

Columns and labels:
PfHRP2 protein = PfHRP2 protein (Plasmodium falciparum, UniProt P05227); test: biochemical
Method: For the selectivity assay, the effect of binding of the ligand to the PfHRP2 protein with varying serum concentrations was determined.

full-length Akt2 protein = biological target: T1, full-length Akt2 protein (Homo sapiens, UniProt P31751); test: affinity estimation from immunoassays capturing full-length Akt2 protein (FIG. 6D); assay type: binding; details: cyclic vs linear peptide
T1 construct: compared against the corresponding linear peptide for capturing full-length Akt2 protein
Description: (§1) The structure of an isolated hit, with sequence of variable region YYTYT (SEQ ID NO:4) is illustrated in FIG. 6A. […] FIG. 6D is an affinity estimation from immunoassays in which the Cy(YYTYT (SEQ ID NO:4)-Tz4) peptide is compared against the corresponding linear peptide for capturing full-length Akt2 protein. […] Finally, FIG. 6E presents selectivity assay data showing the relative binding of the cyclic peptide to the Akt2 protein, relative to the closely related Akt1 and Akt3 proteins. The sequence of the C-terminal regions for all three proteins is given.

Akt2 = Akt2 (Homo sapiens, UniProt P31751); test: single point immunoassay, cyclic versus linear peptide (FIG. 6C); assay type: binding
Description: The peptide libraries of Example 2 were screened against the C-terminal epitope of Akt2 that contains residues 450-481 as illustrated in FIG. 5. Those residues include the phosphorylation site […] which, for the screen exemplified in this example, was phosphorylated. The peptide libraries were first screened against synthetic peptide that represented a scrambled epitope of Akt2 450-481 to eliminate those library elements that bind to closely related epitopes. The remaining library elements were screened against a synthetically prepared polypeptide fragment representing the phosphorylated Akt2 C-terminus. The libraries A, B, C (from example 2) were all screened. Library C yielded hits, and the sequence of those hits (determined by Edman degradation) is shown in Table 3 (Tz4 indicates 4-carbon linker to triazole).
as §1

PfLDH [1] = biological target: T2, PfLDH (Plasmodium falciparum, UniProt Q27743, A73S/D96L); test: ELISA, biotinylated ligand on streptavidin plate, GST-PfLDH, antiGST-HRP detection; assay type: binding; details: 5 μM biotinylated ligand immobilized
Method: (§2) Hit sequence No. 6 (HWSAN (SEQ ID NO:11)) was identified for further testing against the whole PfLDH or PvLDH proteins, results of which are presented in FIG. 10. […] A RCM cyclized version of the HWSAN (SEQ ID NO:11) peptide was synthesized. 5 μM of the biotinylated ligands were immobilized on a streptavidin plate, blocked with 5% milk and then treated with GST-PfLDH or GST-PvLDH proteins overnight. The binding was detected using antiGST-HRP antibody.
To look at the selectivity of the ligand, a single point ELISA was done with the biotinylated ligand immobilized on the streptavidin plate and treating with 10 nM PfLDH or PvLDH protein in varying concentrations of human serum.

PvLDH [2] = test: ELISA, biotinylated ligand on streptavidin plate, GST-PvLDH, antiGST-HRP detection; assay type: binding; details: whole protein; 5 μM biotinylated ligand immobilized; FIG. 10
Method: as §2

PfLDH [3] = biological target: T2, PfLDH; test: sandwich ELISA, NeutrAvidin-coated plates loaded with biotinylated ligand, pfLDH; assay type: binding; details: varying concentrations of pLDH in TBS
Method: (§3) The structure of the resulting binary ligand hevwh-YLGHK based on the hit sequence No. 1 and representative data is presented in FIG. 11. […] Similar ELISA was performed with pLDHs and human LDH (hLDH) in the presence of 1 and 5% (v/v) human serum to confirm the selectivity and high activity of the binary ligand in complex mixtures.

PvLDH [4] = test: sandwich ELISA, NeutrAvidin-coated plates loaded with biotinylated ligand, pvLDH; assay type: binding; details: varying concentrations of pLDH in TBS
Method: as §3

Sequence of Akt2 (P31751 whole entry, the tested form may be a part): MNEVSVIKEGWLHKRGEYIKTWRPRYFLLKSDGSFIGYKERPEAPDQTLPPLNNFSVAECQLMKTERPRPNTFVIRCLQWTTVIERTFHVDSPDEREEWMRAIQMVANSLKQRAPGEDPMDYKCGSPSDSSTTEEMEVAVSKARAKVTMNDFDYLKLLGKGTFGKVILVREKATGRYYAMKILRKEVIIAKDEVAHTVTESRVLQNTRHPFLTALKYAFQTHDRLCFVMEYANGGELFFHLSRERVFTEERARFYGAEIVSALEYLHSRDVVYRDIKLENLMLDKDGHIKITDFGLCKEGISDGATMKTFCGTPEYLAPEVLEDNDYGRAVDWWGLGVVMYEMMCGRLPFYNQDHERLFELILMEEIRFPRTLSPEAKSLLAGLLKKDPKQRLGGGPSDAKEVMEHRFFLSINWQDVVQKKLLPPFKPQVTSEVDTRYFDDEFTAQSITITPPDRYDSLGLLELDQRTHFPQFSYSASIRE
T1 sequence (P31751 whole entry): as the sequence (P31751 whole entry, the tested form may be a part) above

Compound: CC(C)C[C@@H]1NC(=O)[C@H](Cc2c[nH]c3ccccc23)NC(=O)[C@H](CCC(=O)O)NC(=O)[C@H]([C@@H](C)O)NC(=O)[C@H](CO)NC(=O)CNC(=O)[C@](C)(N)CCCCCC/C=C\CCC[C@@](C)(C(=O)NCCOCCOCCOCCOCCOCCCC(=O)NCCNC(=O)CCCC[C@@H]2SC[C@@H]3NC(=O)N[C@@H]32)NC1=O [biotinylated peptide] (H-[R8]GSTEWL[S5][X1]-{Ethylenediamine-Biotin}; staple (Z) 1-8)
- pEC50 (PfHRP2 protein): 7.70

Compound: Cy(YYTYT (SEQ ID NO:4)-Tz4) (triazole (positions not given here); also: Tz4: 4-carbon linker to triazole)
- affinity relative to the corresponding linear peptide (full-length Akt2 protein): 30 fold
- binding relative to the linear variant (Akt2): improved binding

Compound: HWSAN ([Pra]HWSAN; triazole (positions not given here); also: triazole cyclisation, partner residue not given here) [HWSAN (SEQ ID NO:11)]
- selectivity between the PfLDH and PvLDH, triazole-cyclized versus RCM cyclic peptide (PfLDH [1]; GST-PfLDH or GST-PvLDH overnight): higher selectivity
- affinity for pfLDH (PfLDH [1]; whole protein, FIG. 10): high affinity
- affinity for pvLDH (PvLDH [2]): high affinity

Compound: hevwh-YLGHK
- affinity for pfLDH (PfLDH [3]): high affinity
- affinity for pvLDH (PvLDH [4]): high affinity

Compound: RCM cyclic peptide: RCM cyclized version of the HWSAN peptide, biotinylated ligand (staple (positions not given here); also: RCM cyclized, olefinic residues not placed, biotinylated, site not given here)
- affinity for PfLDH, RCM cyclic versus triazole-cyclized peptide (PfLDH [1]; GST-PfLDH overnight): higher affinity
